In the supplement of paper PMC10126150:
± gives the standard deviation of the averaged measurements.

Tested on: ATP
Assay: switch fluorescence ratio, 500 uM ATP over buffer (Cy3 cluster intensity, sum of 5 cycles each) (fold (ratio)); higher = stronger signal-on switching upon ATP binding; sequences stand for … in TCGTCGGCAGCGTCAGATGTGTATAAGAGACAGTTTTTTTTTTTTTTTTTTTTTTTTT…TC
Conditions: aptamer strand: ATP DNA aptamer (quencher-CACCTGGGGGAGTATTGCGGAGGAAGG + anchor), 100 nM annealed; ATP concentration: 500 uM
How it was run: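 Switching-strand clusters labelled with Cy3 on a modified Illumina MiSeq flow-cell were annealed to 100 nM quencher-labelled ATP aptamer, imaged in selection buffer, and re-imaged after 15 min with 500 uM ATP at 22 °C. This was done over five cycles with NaOH stripping and re-annealing in between. The fluorescence ratio is summed target-cycle over summed buffer-cycle Cy3 intensity per cluster, averaged per switch-domain sequence, excluding clusters outside 100-1000 RFU.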
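Note: ATP exposure 15 min at 22 °C before imaging.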

With CGTGCTGGGA the switch fluorescence ratio was 1.03 ± 0.033.

For CGTGCTTGTA, the switch fluorescence ratio was 1.01 ± 0.025.

In the case of CGTGCTTTCT, the switch fluorescence ratio is reported as 0.999 ± 0.029.

In the case of CGTGGAGTGG, the switch fluorescence ratio is reported as 0.996 ± 0.029.

CGTGGATGCG gave a switch fluorescence ratio of 1.025 ± 0.0038.

In the case of CGTGGATGGT, the switch fluorescence ratio is reported as 0.9933 ± 0.0032.

CGTGGATTTT gave a switch fluorescence ratio of 0.972 ± 0.034.

In the case of CGTGGCCGTT, the switch fluorescence ratio is reported as 0.978 ± 0.095.

CGTGGCCTGG was tested, and the switch fluorescence ratio was 0.994 ± 0.024.

CGTGGCGCGG showed a switch fluorescence ratio of 0.9942 ± 0.0096.

In the case of CGTGGCTAAG, the switch fluorescence ratio is reported as 0.971 ± 0.046.

With CGTGGGAATA the switch fluorescence ratio was 0.9992 ± 0.0082.

Work on CGTGGGAGAA yielded a switch fluorescence ratio of 1.09 ± 0.084.

In the case of CGTGGGAGGG, the switch fluorescence ratio is reported as 0.99 ± 0.011.

CGTGGGGACT showed a switch fluorescence ratio of 0.991 ± 0.027.

CGTGGGGCGA showed a switch fluorescence ratio of 1.03 ± 0.025.

Work on CGTGGGGGTA yielded a switch fluorescence ratio of 0.996 ± 0.025.

CGTGGGTAGA was tested, and the switch fluorescence ratio was 1.06 ± 0.09.

CGTGGTGGGG was tested, and the switch fluorescence ratio was 0.992 ± 0.015.

CGTGGTTATG gave a switch fluorescence ratio of 0.975 ± 0.06.

CGTGTAAATA gave a switch fluorescence ratio of 0.995 ± 0.015.

CGTGTAAGAT was tested, and the switch fluorescence ratio was 1.03 ± 0.047.

CGTGTAATTC showed a switch fluorescence ratio of 1.03 ± 0.1.

In the case of CGTGTACCGG, the switch fluorescence ratio is reported as 1.01 ± 0.0092.

With CGTGTAGGGG the switch fluorescence ratio was 1.03 ± 0.017.

Sequence CGTGTAGTCC has a switch fluorescence ratio of 1.1 ± 0.086.

For CGTGTGAGAG, the switch fluorescence ratio was 0.986 ± 0.021.

CGTGTGGTTC showed a switch fluorescence ratio of 1.02 ± 0.036.

CGTGTGTACC gave a switch fluorescence ratio of 1.007 ± 0.0049.

CGTGTGTGTA gave a switch fluorescence ratio of 1.07 ± 0.05.

Sequence CGTGTGTTGC has a switch fluorescence ratio of 1 ± 0.024.

CGTGTTTGCG was tested, and the switch fluorescence ratio was 0.985 ± 0.031.

CGTGTTTTTG showed a switch fluorescence ratio of 0.986 ± 0.02.

Work on CGTTAAAGAT yielded a switch fluorescence ratio of 1.03 ± 0.023.

With CGTTAAGGCT the switch fluorescence ratio was 0.973 ± 0.015.

In the case of CGTTAAGTTC, the switch fluorescence ratio is reported as 0.993 ± 0.029.

With CGTTAATTCG the switch fluorescence ratio was 1 ± 0.028.

Sequence CGTTACAGGT has a switch fluorescence ratio of 1.04 ± 0.028.

CGTTACTTAG was tested, and the switch fluorescence ratio was 1.02 ± 0.011.

CGTTACTTTT gave a switch fluorescence ratio of 1.02 ± 0.053.

In the case of CGTTAGTTTT, the switch fluorescence ratio is reported as 0.9924 ± 0.0021.

For CGTTATAAAG, the switch fluorescence ratio was 0.9811 ± 0.0012.

For CGTTATACTG, the switch fluorescence ratio was 1.07 ± 0.027.

Work on CGTTATAGTC yielded a switch fluorescence ratio of 1.02 ± 0.047.

In the case of CGTTATCGTC, the switch fluorescence ratio is reported as 0.99 ± 0.0099.

With CGTTCATTAG the switch fluorescence ratio was 1.003 ± 0.0076.

Work on CGTTCTAGTT yielded a switch fluorescence ratio of 1.001 ± 0.01.

CGTTCTATGT was tested, and the switch fluorescence ratio was 1.01 ± 0.02.

For CGTTCTCCCC, the switch fluorescence ratio was 1.03 ± 0.068.

CGTTCTGGAG gave a switch fluorescence ratio of 1.2 ± 0.038.

CGTTGAAAGT gave a switch fluorescence ratio of 0.991 ± 0.015.

Sequence CGTTGATAAG has a switch fluorescence ratio of 0.997 ± 0.022.

For CGTTGATCAG, the switch fluorescence ratio was 0.976 ± 0.024.

Work on CGTTGATGGT yielded a switch fluorescence ratio of 0.992 ± 0.02.

In the case of CGTTGCATTG, the switch fluorescence ratio is reported as 1.03 ± 0.017.

For CGTTGCTGAT, the switch fluorescence ratio was 0.972 ± 0.035.

Sequence CGTTGGAATA has a switch fluorescence ratio of 1.01 ± 0.042.

For CGTTGGAATG, the switch fluorescence ratio was 0.981 ± 0.015.

In the case of CGTTGGCCGT, the switch fluorescence ratio is reported as 1.03 ± 0.085.

Work on CGTTGGGACG yielded a switch fluorescence ratio of 1.0042 ± 0.00087.

With CGTTGGGAGG the switch fluorescence ratio was 0.979 ± 0.016.

With CGTTGGGGCA the switch fluorescence ratio was 1 ± 0.077.

For CGTTGGGGCG, the switch fluorescence ratio was 0.931 ± 0.035.

For CGTTGGGGTG, the switch fluorescence ratio was 1.03 ± 0.063.

Work on CGTTGGGTTC yielded a switch fluorescence ratio of 0.969 ± 0.013.

CGTTGTGGCA gave a switch fluorescence ratio of 1 ± 0.028.

With CGTTGTGTAG the switch fluorescence ratio was 1.02 ± 0.013.

CGTTGTTCGT gave a switch fluorescence ratio of 1 ± 0.0015.

CGTTGTTGTA showed a switch fluorescence ratio of 1.01 ± 0.02.

For CGTTGTTTTG, the switch fluorescence ratio was 0.9848 ± 0.0091.

Sequence CGTTTAATGG has a switch fluorescence ratio of 0.984 ± 0.0086.

With CGTTTACGCC the switch fluorescence ratio was 1 ± 0.046.

For CGTTTAGTGG, the switch fluorescence ratio was 0.9781 ± 0.0089.

CGTTTATTG showed a switch fluorescence ratio of 0.9967 ± 0.0085.

With CGTTTCGCAG the switch fluorescence ratio was 1.03 ± 0.068.

CGTTTCTAAG showed a switch fluorescence ratio of 0.967 ± 0.03.

CGTTTCTTTT showed a switch fluorescence ratio of 0.997 ± 0.02.

Sequence CGTTTGGTAG has a switch fluorescence ratio of 0.964 ± 0.019.

Sequence CGTTTGTACT has a switch fluorescence ratio of 1.022 ± 0.0013.

CGTTTGTGCA gave a switch fluorescence ratio of 0.98971 ± 6.6e-05.

For CGTTTGTGTG, the switch fluorescence ratio was 1.01 ± 0.011.

With CGTTTTCCAG the switch fluorescence ratio was 0.985 ± 0.03.

For CGTTTTGCGG, the switch fluorescence ratio was 1.04 ± 0.052.

For CGTTTTGGTT, the switch fluorescence ratio was 0.976 ± 0.021.

In the case of CGTTTTTTGT, the switch fluorescence ratio is reported as 0.9843 ± 0.002.

Sequence CTAAAATGCT has a switch fluorescence ratio of 1.042 ± 0.0088.

CTAAACGTCA showed a switch fluorescence ratio of 1.1 ± 0.051.

CTAAAGTGGG gave a switch fluorescence ratio of 0.973 ± 0.015.

CTAAATTTTA showed a switch fluorescence ratio of 0.989 ± 0.019.

CTAACAGCGA showed a switch fluorescence ratio of 1.297 ± 0.0027.

With CTAACCATCT the switch fluorescence ratio was 1.028 ± 0.0038.

With CTAACGAGGG the switch fluorescence ratio was 0.9731 ± 0.0043.

Work on CTAACGGTTT yielded a switch fluorescence ratio of 0.976 ± 0.028.

With CTAACTAAGG the switch fluorescence ratio was 1.015 ± 0.0095.

CTAAGATAGG gave a switch fluorescence ratio of 1.01 ± 0.029.

With CTAAGGAGGG the switch fluorescence ratio was 0.989 ± 0.021.

CTAAGTCGAG showed a switch fluorescence ratio of 0.966 ± 0.037.

CTAAGTTCTT gave a switch fluorescence ratio of 0.987 ± 0.008.

Sequence CTAATAATCG has a switch fluorescence ratio of 1 ± 0.015.

CTAATATCAC showed a switch fluorescence ratio of 1.02 ± 0.012.
